From patent publication US8987424B2, “CA6 antigen-specific cytotoxic conjugate and methods of using the same” (ImmunoGen, Inc., priority 2003, dated 2015)

B1: DS6-DM1: muDS6 antibody modified with SPP and conjugated to the maytansinoid DM1 (conjugate)
VH: QAYLQQSGAELVRSGASVKMSCKASGYTFTSYNMHWVKQTPGQGLEWIGYIYPGNGATNYNQKFKGKATLTADPSSSTAYMQISSLTSEDSAVYFCARGDSVPFAYWGQGTLVTVSA
VL: QIVLTQSPAIMSASPGEKVTITCSAHSSVSFMHWFQQKPGTSPKLWIYSTSSLASGVPARFGGSGSGTSYSLTISRMEAEDAATYYCQQRSSFPLTFGAGTKLELKR
B2: DS6: murine anti-CA6 monoclonal antibody DS6 (ATCC deposit number PTA-4449) (antibody, V domains shown)
VH: B1 VH
VL: B1 VL

Key:
Caov-3 cells = experiment: Flow cytometry binding assay; set-up: species or system human
Method: Flow cytometric analysis was used to localize the DS6 epitope, CA6, to the cell surface. Human cell lines were obtained from the American Type Culture Collection (ATCC) with the exception of OVCAR5 (Kearse et al., Int. J. Cancer 88(6):866-872 (2000)), OVCAR8 and IGROV1 cells (M. Seiden, Massachusetts General Hospital). All cells were grown in RPMI 1640 supplemented with 4 mM L-glutamine, 50 U/ml penicillin, 50 μg/ml streptomycin (Cambrex Bio Science, Rockland, Me.) and 10% v/v fetal bovine serum (Atlas Biologicals, Fort Collins, Colo.), referred hereafter as culture media. Cells were maintained in a 37° C., 5% CO2 humidified incubator.
Cells ([…]) were incubated, on ice for 3-4 h, with serially diluted concentrations of the DS6 antibody prepared in FACS buffer (2% goat serum, RPMI) into 96-well plates. […] After two washes, the cells were fixed with 1% formaldehyde and analyzed on a flow cytometer.
The muDS6 antibody (8 mg/ml) was modified using 8-fold molar excess of N-succinimidyl-4-(2-pyridyldithio) pentanoate (SPP) to introduce dithiopyridyl groups. […] The degree of modification was determined by measuring the absorbance of the antibody at 280 nm and the DTT released 2-mercaptopyridine (Spy) at 280 and 343 nm. […] The number of DM1 molecules linked per molecule of muDS6 was determined by measuring the absorbance at both 252 nm and 280 nm of the filtered material. […]

pancreatic cell lines = experiment: Clonogenic assay; type: cell-based, human
Method: (§1) The cytotoxicity of maytansinoid conjugated muDS6 antibody was examined using 2 different assay formats in various DS6 positive cell lines. Clonogenic assays were conducted where cells (1000-2500 cells/well) were plated on 6-well plates in 2 ml of conjugate diluted in culture media. […] The wells were washed with PBS and the colonies were stained with a 1% w/v crystal violet/10% v/v formaldehyde/PBS solution. Unbound stain was then washed thoroughly from the wells with distilled water, and the plates were allowed to dry. The colonies were counted using a Leica StereoZoom 4 dissecting microscope.
(§2) Plating efficiency (PE) was calculated as the number of colonies/number of cells plated. Surviving fraction was calculated as PE of treated cells/PE of non-treated cells. The IC50 concentration was determined by graphing the surviving fraction of cells vs. the molar concentration of the conjugate.

[1] = test system: A375 cells (antigen negative); experiment: Clonogenic assay; type: cell-based, human; details: 3×10^−9 M, highest concentration tested
Method: as §1, §2

[2] = test system: cervical cell lines (HeLa, KB, and WISH); experiment: Clonogenic assay; type: cell-based, human
Method: as §1, §2

HeLa cells = experiment: Flow cytometry binding assay; set-up: species or system human; details: HeLa
Method: Cells were maintained in a 37° C., 5% CO2 humidified incubator.
Cells ([…]) were incubated, on ice for 3-4 h, with serially diluted concentrations of the DS6 antibody prepared in FACS buffer (2% goat serum, RPMI) into 96-well plates. The cells were spun down in a table top centrifuge at 1500 rpm for 5 min at 4° C. After removing the media, the wells were then refilled with 150 μl of FACS buffer. The wash step was then repeated. FITC-labeled goat anti-mouse IgG (Jackson Immunoresearch) was diluted 1:100 to FACS buffer and incubated with the cells for 1 h on ice. The plate was covered in foil to prevent photobleaching of the signal. After two washes, the cells were fixed with 1% formaldehyde and analyzed on a flow cytometer.

Molecule	effect of conjugation on binding affinity (Caov-3 cells; Caov-3 cells, versus unmodified muDS6)	sensitivity to the conjugate (pancreatic cell lines)	effect of conjugate on antigen negative cells [1]	sensitivity to the conjugate [2]	MMF (average maximum relative mean fluorescence) (Caov-3 cells; Caov-3)	MMF (average maximum relative mean fluorescence) (HeLa cells)
B1	only a slight loss of affinity	None of the pancreatic cell lines appeared to have been affected	only slightly affected	sensitive	–	–
B2	–	–	–	–	465.20	242.50
